What was measured:
[1] = biological target: T1, Onchocerca volvulus prolyl tRNA synthetase (OvPRS) (Onchocerca volvulus, UniProt A0A2K6VID2); assay: malachite green aminoacylation assay with recombinant purified OvPRS ([…] proline, […] ATP, […] enzyme); format: biochemical
T1 construct: OvPRS construct of 497 amino acids (279–775; 57 kDa), MBP-His tag removed by TEV
T1 sequence (A0A2K6VID2 279-775): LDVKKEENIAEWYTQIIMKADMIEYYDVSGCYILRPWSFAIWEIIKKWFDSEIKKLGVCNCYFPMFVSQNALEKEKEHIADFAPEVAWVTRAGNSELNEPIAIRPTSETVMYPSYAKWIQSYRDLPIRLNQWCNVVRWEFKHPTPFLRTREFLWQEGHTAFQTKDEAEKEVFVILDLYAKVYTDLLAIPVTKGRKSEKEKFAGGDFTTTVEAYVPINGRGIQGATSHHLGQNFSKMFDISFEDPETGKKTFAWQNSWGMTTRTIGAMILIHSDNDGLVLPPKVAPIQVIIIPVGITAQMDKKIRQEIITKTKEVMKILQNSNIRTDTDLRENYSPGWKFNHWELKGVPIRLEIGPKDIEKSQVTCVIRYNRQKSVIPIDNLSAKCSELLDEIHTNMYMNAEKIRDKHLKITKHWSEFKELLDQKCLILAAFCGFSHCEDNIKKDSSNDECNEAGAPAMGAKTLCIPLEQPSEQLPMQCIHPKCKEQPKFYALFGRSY

[2] = substrate: Nc1ncnc2c1ncn2[C@@H]1O[C@H](COP(=O)(O)OP(=O)(O)OP(=O)(O)O)[C@@H](O)[C@H]1O; assay: purified protein; format: biochemical, Onchocerca volvulus
[3] = substrate: O=C(O)[C@@H]1CCCN1; assay: purified protein; format: biochemical, Onchocerca volvulus

O=C(CC1NCCCC1O)Cn1cnc2cc(Br)c(Cl)cc2c1=O (stereo not drawn) [HF, halofuginone]
IC50 [1]: ~30 nM

B1: Onchocerca volvulus prolyl tRNA synthetase (OvPRS) (Onchocerca volvulus) (protein)
chain: T1 sequence (A0A2K6VID2 279-775)
notes: OvPRS construct of 497 amino acids (279–775; 57 kDa), MBP-His tag removed by TEV
Km [2]: 18.9 ± 2.2 µM | Km [3]: 24.17 ± 11 µM

— publication PMC6498573, “Genomic analyses of aminoacyl tRNA synthetases from human-infecting helminths” (BMC Genomics, 2019)
